The results in this text go back to patent publication US12570698B2, “Stabilized peptides for covalent binding to target protein” (Dana-Farber Cancer Institute, Inc., priority 2015, dated 2026).

For one experiment, the target named is T1, Bfl-1 (Homo sapiens, UniProt Q16548).
T1 sequence (Q16548 1-175): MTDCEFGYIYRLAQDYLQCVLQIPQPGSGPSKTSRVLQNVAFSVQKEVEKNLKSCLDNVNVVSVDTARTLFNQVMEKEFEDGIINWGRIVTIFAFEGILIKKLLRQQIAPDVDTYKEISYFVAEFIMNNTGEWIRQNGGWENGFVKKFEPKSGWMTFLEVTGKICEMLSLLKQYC
As to the kind of experiment: Competitive binding assay after pre-forming the Bfl-1:NOXA disulfide bond. The settings on record: Bfl-1:NOXA disulfide bond pre-formed. As for the experimental part: The functional impact of the Bfl-1:NOXA disulfide bond formation was evaluated using competitive binding assays and liposomal release assays.

The target of experiment [1] is T2, BFL-1ΔC (Homo sapiens, UniProt Q16548).
T2 construct: cDNA encoding BFL-1ΔC (aa 1-153) was cloned into the pET19b expression vector; made in house; host or cells: Escherichia coli BL21(DE3) LOBSTR
T2 sequence (Q16548 1-153): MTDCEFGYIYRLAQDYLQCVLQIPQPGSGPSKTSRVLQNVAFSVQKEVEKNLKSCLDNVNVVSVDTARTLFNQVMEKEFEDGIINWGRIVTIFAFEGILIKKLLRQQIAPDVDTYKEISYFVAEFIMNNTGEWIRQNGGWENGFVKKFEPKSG
The experiment in a line: In vitro covalent conjugation assay. The format is binding. The settings on record: DTT (10 mM) reduction then GSSG oxidation (12 mM); Coomassie, FITC scan. As for the experimental part: (§1) In Vitro Covalent Conjugation Assay: BFL-1ΔC constructs (40 μM) were combined with NOXA SAHBA or NOXA SAHBA C25S (120 μM) and 10 mM DTT in 50 mM Tris pH 8.0, 100 mM NaCl (final volume, 5 μL), and then incubated in the dark for 1 h at room temperature (RT). After this incubation in a reducing environment, the mixture was diluted 5-fold into 50 mM Tris pH 8.0, 100 mM NaCl, 12 mM GSSG and incubated in the dark for an additional 30 min at RT. The samples were then boiled in 4× loading buffer lacking DTT and electrophoresed on 12% Bis-Tris gel. The gel was rinsed with water, subjected to FITC scan (Typhoon FLA 9500, GE Healthcare) and then Coomassie staining.
(§2) For warhead-bearing SAHBs, His-BFL-1ΔC C4S/C19S protein was pretreated with 10 mM DTT in 50 mM Tris pH 8.0, 100 mM NaCl for 30 min at RT (final volume, 9.5 μL), and then combined with a 10:1 molar ratio of NOXA SAHBA or BIM SAHBA peptides bearing warheads 1-8 (final volume, 10 μL) for an additional 2 h incubation at RT. Processing for gel electrophoresis and Coomassie staining was performed as above.

Experiment [2] has as its target T3, BFL-1ΔC (Homo sapiens, UniProt Q16548, C19S/C4S/C55S).
T3 construct: cDNA encoding BFL-1ΔC (aa 1-153) was cloned into the pET19b expression vector; made in house; host or cells: Escherichia coli BL21(DE3) LOBSTR
T3 sequence (Q16548 1-153 C4S/C19S/C55S): T2 sequence (Q16548 1-153) with C4S, C19S, C55S
The experiment in a line: In vitro covalent conjugation assay. It counts as binding. The conditions noted are these: lacks C55; oxidizing conditions. Here is the method: as §1, §2

Experiment [3] deals with T4, BFL-1ΔC (Homo sapiens, UniProt Q16548, C19S/C4S).
T4 construct: cDNA encoding BFL-1ΔC (aa 1-153) was cloned into the pET19b expression vector; made in house; host or cells: Escherichia coli BL21(DE3) LOBSTR
T4 sequence (Q16548 1-153 C4S/C19S): T2 sequence (Q16548 1-153) with C4S, C19S
The experiment in a line: In vitro covalent conjugation assay. It counts as binding. The settings on record: only C55 present; oxidizing conditions. As for the experimental part:
as §1, §2

Changes are numbered by the printed parent chain. Bridge positions count the residues as written; N and C are the ends. Square brackets hold non-standard residues; d marks the D form. Ends that are not written are not given here. S5 = C=CCCC[C@](C)(N)C(=O)O

In the case of “NOXA SAHBA: stapled NOXA BH3 (aa 19-43) peptide, i, i+4 all-hydrocarbon staple substituting R31 and K35; SEQ ID NO:124 (AELEVECATQLR[S5]FGD[S5]LNFRQKLL; staple 13-17; not fully specified)”, in the experiment with Bfl-1, the “availability of the Bfl-1 binding pocket to another FITC BH3 domain” value is listed as “significantly decreased the availability of the Bfl-1 binding pocket”. The “molecular weight shift of wild-type BFL-1ΔC (disulfide bond)” value with BFL-1ΔC [1] is “shift in the molecular weight”. Moreover, the “disulfide adduct with BFL-1ΔC C4S/C19S/C55S” value in the experiment with BFL-1ΔC [2] is “no adduct”. Further, the “disulfide adduct with BFL-1ΔC C4S/C19S” value with BFL-1ΔC [3] is “molecular weight shift (Coomassie stain) and FITC-labeling”.
